Assays:
[1] = tested on: SK-N-SH (neuroblastoma) cells; test: Growth and survival of SK-N-SH cells (MTT assay); format: cell-based, human
Experimental: (§1) Several human tumor cell lines were tested in serum-free conditions for their growth and survival response to IGF-I. These cell lines were treated with EM164 antibody in the presence of IGF-I, IGF-II, or serum, and their growth and survival responses were measured using an MTT assay after 2-4 days. Approximately 1500 cells were plated in a 96-well plate in regular medium with serum, which was replaced with serum-free medium the following day (either serum-free RPMI medium supplemented with transferrin and BSA, or phenol-red free medium as specified by Dufourny, B. et al., 1997, J. Biol. Chem., 272, 31163-31171). After one day of growth in serum-free medium, the cells were incubated with about 75 μL of 10 μg/mL antibody for 30 min.-3 h, followed by the addition of 25 μL of IGF-I (or IGF-II or serum) solution to obtain a final concentration of 10 ng/mL IGF-I, or 20 ng/mL IGF-II, or 0.04-10% serum. In some experiments, the cells were stimulated first with IGF-I for 15 min before the addition of EM164 antibody, or both IGF-I and EM164 antibody were added together. The cells were then allowed to grow for another 2-3 days. A solution of MTT (3-(4,5)-dimethylthiazol-2-yl)-2,5-diphenyltetrazolium bromide; 25 μL of a 5 mg/mL solution in PBS) was then added and the cells were returned to the incubator for 2-3 h. The medium was then removed and replaced by 100 μL DMSO, mixed, and the absorbance of the plate was measured at 545 nm.

Akt and Erk1/2 [2] = test: IGF-I receptor signaling in MCF-7 cells (Western blots, phospho-Akt and phospho-Erk1/2); format: cell-based, human
NCI-H596 cells = test: Growth and survival of NCI-H596 cells (MTT assay); format: cell-based, human
Experimental: as §1

IGF-I receptor [3] = biological target: T1, IGF-I receptor (Homo sapiens, UniProt P08069); test: IGF-I-stimulated autophosphorylation of IGF-I receptor in MCF-7 cells (ELISA); format: cell-based; conditions: 20 μg/mL antibody 3 h; 50 ng/mL IGF-I 20 min
T1 construct: human breast cancer MCF-7 cells, which expressed IGF-I receptor; endogenous in cells; host or cells: MCF-7 human breast cancer cells
Experimental: In FIG. 4, the MCF-7 cells were grown in a 12-well plate in regular medium for 3 days, and were then treated with 20 μg/mL EM164 antibody (or anti-B4 control antibody) in serum-free medium for 3 h, followed by stimulation with 50 ng/mL IGF-I for 20 min at 37° C. The cells were then lysed in ice-cold lysis buffer containing protease and phosphatase inhibitors (50 mM HEPES buffer, pH 7.4, 1% NP-40, 1 mM sodium orthovanadate, 100 mM sodium fluoride, 10 mM sodium pyrophosphate, 2.5 mM EDTA, 10 μM leupeptin, 5 μM pepstatin, 1 mM PMSF, 5 mM benzamidine, and 5 μg/mL aprotinin). An ELISA plate was pre-coated with anti-IGF-I receptor beta chain C-terminus monoclonal antibody TC123 and was incubated with the lysate samples for 5 h at ambient temperature to capture IGF-I receptor. The wells containing the captured IGF-I receptor were then washed and incubated with biotinylated anti-phosphotyrosine antibody (PY20; 0.25 μg/mL; BD Transduction Laboratories) for 30 min, followed by washes and incubation with streptavidin-horseradish peroxidase conjugate (0.8 μg/mL) for 30 min. The wells were washed and detected with ABTS/H2O2 substrate.

SK-LU-1 cells = test: Growth and survival of SK-LU-1 cells (MTT assay); format: cell-based, human
Experimental: as §1

IGF-I receptor [4] = biological target: T1, IGF-I receptor; test: Downregulation of IGF-I receptor in MCF-7 cells (Western blot); format: cell-based
Experimental: Therefore, the inhibition of binding of IGF-I and the displacement of bound IGF-I by EM164 antibody at both 4° C. and 37° C. in these short-term experiments may not be explained by the down-regulation of the receptor due to the binding of the EM164 antibody. The mechanism for the potent inhibition of the binding of IGF-I to IGF-I receptor and for the displacement of the pre-bound IGF-I by EM164 antibody is likely to be competition for binding, either through sharing of the binding site or through steric occlusion or through allosteric effects.

SK-Mel-37 cells = test: Growth and survival of SK-Mel-37 cells (MTT assay); format: cell-based, human; conditions: 5-10 μg/mL EM164, 10 ng/mL IGF-I
Experimental: as §1, with “A solution of MTT (3-(4,5)-dimethylthiazol-2-yl)-2,5-diphenyltetrazolium bromide; 25 μL of a 5 mg/mL solution in PBS) was then added and the cells were returned to the incubator for 2-3 h.” left out

[5] = tested on: NCI-H838 lung cancer cells; test: Apoptosis: caspase-cleaved cytokeratin CK18 in NCI-H838 cells; format: cell-based, human; conditions: IGF-I or serum, presence vs absence of EM164, 1 day
Experimental: For measurement of apoptosis, cleavage of the cytokeratin CK18 protein by caspase was measured in NCI-H838 lung cancer cells incubated with IGF-I or serum in the presence or absence of EM164 for 1 day (FIG. 26).

[6] = tested on: IGF-I receptor of CHO cells; test: Immunoprecipitation of IGF-I receptor from CHO cells; format: binding; conditions: CHO cells (Chinese hamster)
Description: A Western blot of the EM164 antibody immunoprecipitate was detected using a rabbit polyclonal anti-IGF-I receptor beta chain (C-terminus) antibody (Santa Cruz Biotechnology) and a goat-anti-rabbit-IgG-antibody-horseradish peroxidase conjugate, followed by washes and enhanced chemiluminescence (ECL) detection.

A 375 (melanoma) cells = test: Growth and survival of A 375 cells (MTT assay); format: cell-based, human
Experimental: as §1

[7] = tested on: Human non-small cell lung cancer Calu-6 xenografts; format: in vivo
Description: Human non-small cell lung cancer Calu-6 xenografts were established in immunodeficient mice by subcutaneous injections of 1×10^7 Calu-6 cells.

[8] = tested on: SaOS-2 (osteosarcoma) cells; test: Growth and survival of SaOS-2 cells (MTT assay); format: cell-based, human
Experimental: as §1

A 549 cells = test: Growth and survival of A 549 cells (MTT assay); format: cell-based, human; conditions: 5-10 μg/mL EM164, 10 ng/mL IGF-I
Experimental: as §1, with “A solution of MTT (3-(4,5)-dimethylthiazol-2-yl)-2,5-diphenyltetrazolium bromide; 25 μL of a 5 mg/mL solution in PBS) was then added and the cells were returned to the incubator for 2-3 h.” left out

Akt and Erk1/2 [9] = test: IGF-I receptor signaling in SaOS-2 cells (Western blots, phospho-Akt and phospho-Erk1/2); format: cell-based, human
[10] = 5-10 μg/mL EM164, 10 ng/mL IGF-I
[11] = 5-10 μg/mL EM164, MTT or colony formation assay

B1: EM164: murine anti-IGF-I receptor monoclonal antibody, IgG1 with kappa light chain, hybridoma ATCC PTA-4457; heavy SEQ ID NO:7, light SEQ ID NO:8 (antibody)
heavy: QVQLQQSGAELVKPGASVKLSCKASGYTFTSYWMHWVKQRPGQGLEWIGEINPSNGRTNYNEKFKRKATLTVDKSSSTAYMQLSSLTSEDSAVYYFARGRPDYYGSSKWYFDVWGAGTTVTVSS
light: DVLMTQTPLSLPVSLGDQASISCRSSQSIVHSNVNTYLEWYLQKPGQSPKLLIYKVSNRFSGVPDRFSGSGSGTDFTLRISRVEAEDLGIYYCFQGSHVPPTFGGGTKLEIKR
modifications: antibody heavy chain; antibody light chain
% Inhibition by EM164 antibody of Growth/survival of cells in 1.25-10% serum ([1]; 5-10 μg/mL EM164): 30-50% | Inhibition by EM164 antibody of IGF-I-stimulated growth in serum-free medium [1, 10]: 85% | intracellular IGF-I receptor signaling (Akt and Erk1/2 [2]): almost completely inhibited | activation of Akt and Erk1/2 (Akt and Erk1/2 [2]; IGF-I stimulated): inhibited in a dose-dependent manner | Inhibition by EM164 antibody of IGF-I-stimulated growth in serum-free medium (NCI-H596 cells; [10]): 100% | % Inhibition by EM164 antibody of Growth/survival of cells in 1.25-10% serum (NCI-H596 cells; [11]): Weakly | inhibition of the IGF-I stimulated autophosphorylation of IGF-I receptor (IGF-I receptor [3]): complete inhibition | Inhibition by EM164 antibody of IGF-I-stimulated growth in serum-free medium (SK-LU-1 cells; [10]): 100% | % Inhibition by EM164 antibody of Growth/survival of cells in 1.25-10% serum (SK-LU-1 cells; [11]): No | downregulation of the IGF-I receptor (IGF-I receptor [4]; 4° C. for 2 h (or 37° C. for 30 min)): did not result in a significant downregulation | downregulation of the IGF-I receptor (IGF-I receptor [4]; 37° C. for 2 h): 25% | Inhibition by EM164 antibody of IGF-I-stimulated growth in serum-free medium (SK-Mel-37 cells): 85% | caspase-cleaved CK18 levels [5]: greater cleaved CK18 levels | binding to IGF-I receptor (immunoprecipitation) [6]: did not bind | Inhibition by EM164 antibody of IGF-I-stimulated growth in serum-free medium (A 375 (melanoma) cells; [10]): 90% | % Inhibition by EM164 antibody of Growth/survival of cells in 1.25-10% serum (A 375 (melanoma) cells; [11]): No | toxicity based on weights of the mice ([7]; EM164 6 injections of 0.8 mg/mouse, i.v.): No toxicity | growth of tumors ([7]; established 100 mm^3 Calu-6 xenografts, EM164 0.8 mg/mouse i.v. x6, taxol 15 mg/kg i.p. x5): significantly slowed | Inhibition by EM164 antibody of IGF-I-stimulated growth in serum-free medium [8, 10]: 100% | % Inhibition by EM164 antibody of Growth/survival of cells in 1.25-10% serum [8, 11]: Yes | Inhibition by EM164 antibody of IGF-I-stimulated growth in serum-free medium (A 549 cells): 80% | EGF-stimulated phosphorylation of Erk1/2 (Akt and Erk1/2 [9]): did not inhibit | intracellular IGF-I receptor signaling (Akt and Erk1/2 [9]): almost completely inhibited | activation of Akt and Erk1/2 (Akt and Erk1/2 [9]; IGF-I stimulated): inhibited in a dose-dependent manner

Source: patent publication US8034904B2, “Anti-IGF-I receptor antibody” (Immunogen Inc., priority 2002, dated 2011)
